Laboratory results from US20100260668A1 (published 2010).

molecular target: T1, VEGF (UniProt P15692-4 27-191); assay: SPR (Biacore), DVD-Ig captured, VEGF in solution
T1 construct: Bought reagent; also called vascular endothelial growth factor
T1 sequence (P15692 other isoform, or with tags, fused parts or gaps limits assumed): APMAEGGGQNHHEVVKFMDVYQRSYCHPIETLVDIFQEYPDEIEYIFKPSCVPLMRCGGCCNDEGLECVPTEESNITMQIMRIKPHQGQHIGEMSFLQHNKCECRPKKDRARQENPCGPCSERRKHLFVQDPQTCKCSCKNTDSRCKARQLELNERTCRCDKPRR

Binder	Kd	koff	kon
DVD514 (bispecific antibody, human IgG1, lambda, DVD-Ig; N-term; VD AB070 (VEGF), C-term; VD AB073 (DLL4); HC linker short, LC linker short; also called DVD514H; DVD514L) heavy: not shown light: DIQMTQSPSSLSASVGDRVTITCRASQDVSTAVAWYQQKPGKAPKLLIYSASFLYSGVPSRFSGSGSGTDFTLTISSLQPEDFATYYCQQSYTTPPTFGQGTKVEIKRTVAAPQAVVTQESALTTSPGETVTLTCRSSTGAVTTSNYANWVQEKPDHLFTGLIGGTNNRAPGVPARFSGSLIGDKAALTITGAQTEDEAIYFCALWYSNHWVFGGGTKLTVLGQPKAAPSVTLFPPSSEELQANKATLVCLISDFYPGAVTVAWKADSSPVKAGVETTTPSKQSNNKYAASSYLSLTPEQWKSHRSYSCQVTHEGSTVEKTVAPTECS	1.01 nM	0.000549 s⁻¹	541000 M⁻¹ s⁻¹
DVD520 (bispecific antibody, human IgG1, kappa, lambda, DVD-Ig; N-term; VD AB070 (VEGF), C-term; VD AB073 (DLL4); HC linker long, LC linker long; also called DVD520H; DVD520L) heavy: not shown light: DIQMTQSPSSLSASVGDRVTITCRASQDVSTAVAWYQQKPGKAPKLLIYSASFLYSGVPSRFSGSGSGTDFTLTISSLQPEDFATYYCQQSYTTPPTFGQGTKVEIKRTVAAPSVFIFPPQAVVTQESALTTSPGETVTLTCRSSTGAVTTSNYANWVQEKPDHLFTGLIGGTNNRAPGVPARFSGSLIGDKAALTITGAQTEDEAIYFCALWYSNHWVFGGGTKLTVLGQPKAAPSVTLFPPSSEELQANKATLVCLISDFYPGAVTVAWKADSSPVKAGVETTTPSKQSNNKYAASSYLSLTPEQWKSHRSYSCQVTHEGSTVEKTVAPTECS	0.817 nM	0.000961 s⁻¹	1.18e+06 M⁻¹ s⁻¹
DVD526 (bispecific antibody, human IgG1, lambda, DVD-Ig; N-term; VD AB070 (VEGF), C-term; VD AB073 (DLL4); HC linker long, LC linker short; also called DVD526H; DVD526L) heavy: not shown light: DIQMTQSPSSLSASVGDRVTITCRASQDVSTAVAWYQQKPGKAPKLLIYSASFLYSGVPSRFSGSGSGTDFTLTISSLQPEDFATYYCQQSYTTPPTFGQGTKVEIKRTVAAPQAVVTQESALTTSPGETVTLTCRSSTGAVTTSNYANWVQEKPDHLFTGLIGGTNNRAPGVPARFSGSLIGDKAALTITGAQTEDEAIYFCALWYSNHWVFGGGTKLTVLGQPKAAPSVTLFPPSSEELQANKATLVCLISDFYPGAVTVAWKADSSPVKAGVETTTPSKQSNNKYAASSYLSLTPEQWKSHRSYSCQVTHEGSTVEKTVAPTECS	0.675 nM	0.000801 s⁻¹	1.19e+06 M⁻¹ s⁻¹
DVD532 (bispecific antibody, human IgG1, kappa, lambda, DVD-Ig; N-term; VD AB070 (VEGF), C-term; VD AB073 (DLL4); HC linker short, LC linker long; also called DVD532H; DVD532L) heavy: not shown light: DIQMTQSPSSLSASVGDRVTITCRASQDVSTAVAWYQQKPGKAPKLLIYSASFLYSGVPSRFSGSGSGTDFTLTISSLQPEDFATYYCQQSYTTPPTFGQGTKVEIKRTVAAPSVFIFPPQAVVTQESALTTSPGETVTLTCRSSTGAVTTSNYANWVQEKPDHLFTGLIGGTNNRAPGVPARFSGSLIGDKAALTITGAQTEDEAIYFCALWYSNHWVFGGGTKLTVLGQPKAAPSVTLFPPSSEELQANKATLVCLISDFYPGAVTVAWKADSSPVKAGVETTTPSKQSNNKYAASSYLSLTPEQWKSHRSYSCQVTHEGSTVEKTVAPTECS	0.276 nM	0.0123 s⁻¹	4.47e+07 M⁻¹ s⁻¹
DVD490 (bispecific antibody, human IgG1, kappa, DVD-Ig; N-term; VD AB070 (VEGF), C-term; VD AB072 (DLL4); HC linker short, LC linker short; also called DVD490H; DVD490L) heavy: not shown light: DIQMTQSPSSLSASVGDRVTITCRASQDVSTAVAWYQQKPGKAPKLLIYSASFLYSGVPSRFSGSGSGTDFTLTISSLQPEDFATYYCQQSYTTPPTFGQGTKVEIKRTVAAPDIQMTQSSSYLSVSLGGRVTITCKASDHINNWLAWYQQKPGNAPRLLISGATSLETGVPSRFSGSGSGKDYTLSITSLQTEDVATYYCQQYWSIPLTFGAGTKLELKRTVAAPSVFIFPPSDEQLKSGTASVVCLLNNFYPREAKVQWKVDNALQSGNSQESVTEQDSKDSTYSLSSTLTLSKADYEKHKVYACEVTHQGLSSPVTKSFNRGEC	0.189 nM	0.000169 s⁻¹	894000 M⁻¹ s⁻¹
DVD496 (bispecific antibody, human IgG1, kappa, DVD-Ig; N-term; VD AB070 (VEGF), C-term; VD AB072 (DLL4); HC linker long, LC linker long; also called DVD496H; DVD496L) heavy: not shown light: DIQMTQSPSSLSASVGDRVTITCRASQDVSTAVAWYQQKPGKAPKLLIYSASFLYSGVPSRFSGSGSGTDFTLTISSLQPEDFATYYCQQSYTTPPTFGQGTKVEIKRTVAAPSVFIFPPDIQMTQSSSYLSVSLGGRVTITCKASDHINNWLAWYQQKPGNAPRLLISGATSLETGVPSRFSGSGSGKDYTLSITSLQTEDVATYYCQQYWSIPLTFGAGTKLELKRTVAAPSVFIFPPSDEQLKSGTASVVCLLNNFYPREAKVQWKVDNALQSGNSQESVTEQDSKDSTYSLSSTLTLSKADYEKHKVYACEVTHQGLSSPVTKSFNRGEC	0.311 nM	0.00658 s⁻¹	2.12e+07 M⁻¹ s⁻¹
DVD502 (bispecific antibody, human IgG1, kappa, DVD-Ig; N-term; VD AB070 (VEGF), C-term; VD AB072 (DLL4); HC linker long, LC linker short; also called DVD502H; DVD502L) heavy: not shown light: DIQMTQSPSSLSASVGDRVTITCRASQDVSTAVAWYQQKPGKAPKLLIYSASFLYSGVPSRFSGSGSGTDFTLTISSLQPEDFATYYCQQSYTTPPTFGQGTKVEIKRTVAAPDIQMTQSSSYLSVSLGGRVTITCKASDHINNWLAWYQQKPGNAPRLLISGATSLETGVPSRFSGSGSGKDYTLSITSLQTEDVATYYCQQYWSIPLTFGAGTKLELKRTVAAPSVFIFPPSDEQLKSGTASVVCLLNNFYPREAKVQWKVDNALQSGNSQESVTEQDSKDSTYSLSSTLTLSKADYEKHKVYACEVTHQGLSSPVTKSFNRGEC	0.265 nM	0.000231 s⁻¹	871000 M⁻¹ s⁻¹
